One molecule from paper PMC9628480, “Discovery and structural characterization of chicoric acid as a SARS-CoV-2 nucleocapsid protein ligand and RNA binding disruptor” can be followed below.

The target in the data set is SARS-CoV-2 nucleocapsid (N) protein, full-length (SARS-CoV-2 (protein amplified from …, UniProt A0A6B9VLF5 1-419)). As to the kind of experiment: fluorescence polarization. The conditions noted are these: protein: recombinant; tags: 6xHis (pET28a-TEV), not cleaved; chain copies: 2; label: 5'-FITC; hairpin. In general terms: Polarisation of emitted light reports the rotation of a fluorescent probe.

CACUCACUGUCAAAAAAGAUGGUAGAGU (structured_RNA) [RNA2 (UUUUUU to AAAAAA)]: the Kd stood at 0.498 ± 0.0432 µM.

The term Kd denotes the free concentration of one partner at which half of the binding sites on the other are occupied at equilibrium, for simple one-to-one binding.
